# Laboratory results reported in patent US20140113288, “METHODS OF IDENTIFYING RISK OF PREECLAMPSIA AND PREGNANCY-RELATED DISORDERS” (Academia Sinica, published 2014).
# Positions count from the first letter of the chain named.
# T1: GCM1 (GCMa) (Homo sapiens, UniProt Q9NP62 Q9NP62:1-436)
# T1 sequence: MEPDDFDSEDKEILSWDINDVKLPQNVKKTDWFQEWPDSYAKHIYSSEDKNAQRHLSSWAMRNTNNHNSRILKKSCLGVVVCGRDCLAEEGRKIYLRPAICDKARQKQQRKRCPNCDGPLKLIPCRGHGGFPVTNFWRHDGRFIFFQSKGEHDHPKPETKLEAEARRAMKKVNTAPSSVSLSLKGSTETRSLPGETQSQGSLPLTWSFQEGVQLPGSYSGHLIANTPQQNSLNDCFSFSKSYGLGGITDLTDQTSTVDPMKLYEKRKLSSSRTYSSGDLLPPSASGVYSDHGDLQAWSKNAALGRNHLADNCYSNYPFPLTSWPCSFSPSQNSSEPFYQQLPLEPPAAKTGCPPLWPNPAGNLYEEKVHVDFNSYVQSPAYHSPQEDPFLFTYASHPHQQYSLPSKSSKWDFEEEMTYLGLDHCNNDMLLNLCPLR
# B1: HtrA4-GBS probe (dsDNA)
# DNA 1: GTGAGCTTTCTTATCAGTCTGCCCTCATTGTCGGTTTT
# DNA 2: AAAACCGACAATGAGGGCAGACTGATAAGAAAGCTCAC
# B2: HtrA4-GBSmt probe (dsDNA)
# DNA 1: B1 DNA 1 with C22A, C23A, C26A, A27C
# DNA 2: B1 DNA 2 with T12G, G13T, G16T, G17T
# Tests used:
# GCM1 (GCMa) [1] = target: T1, GCM1 (GCMa); assay: EMSA; supershifted by anti-GCM1 antibody; 5% non-denaturing gel; details: tags: C-terminal FLAG (GCM1-FLAG); label: radiolabel
# Procedure: (§1) BeWo cells stably expressing HA-GCM1 (BeWo31) (36) were treated with or without 50 μM forskolin for 24 hours before being subjected to ChIP assay using normal mouse serum or HA mAb (Sigma, St. Louis, Mo.). The immunopurified genomic fragments were amplified by ligation-mediated PCR and the resulting amplicons were fragmented and labeled with terminal labeling kit (Affymetrix, Santa Clara, Calif.) according to the manufacturer's instructions. The chips of Human promoter 1.0R array (Affymetrix) were hybridized with the labeled amplicons, followed by data analysis using the Partek software package (St. Louis, Mo.). Furthermore, RefSeq mapping data were collected from the UCSC Genome Browser's RefFlat table (The UCSC genome browser database: update 2007). The closest RefSeq 5′ end for each ChIP region was identified, regardless of whether the cluster was upstream or downstream of the 5′ end. The primer sequences for ChIP analysis of the interaction between GCM1 and HtrA4-GBS in BeWo cells are 5′-[…]-3′ (SEQ ID NO:4) and 5′-GTCTCTAGCC CTACCCG-3′ (SEQ ID NO:5). On the other hand, analysis of direct interaction between GCM1 and HtrA4-GBS was performed by electrophoretic mobility shift assay (EMSA) as previously described (22). […] The reaction mixtures were analyzed by electrophoresis on 5% non-denaturing polyacrylamide gels. […]
# GCM1 (GCMa) [2] = target: T1, GCM1 (GCMa); assay: EMSA; GBS mutated; details: tags: C-terminal FLAG (GCM1-FLAG); label: radiolabel
# Procedure: as §1
Binder,binding result (GCM1 (GCMa) [1]),binding result (GCM1 (GCMa) [2])
B1,binds,–
B2,–,no binding
